B1: GLS3000 V27cI one-arm antibody (H chain CE115HA000) (antibody, human IgG1, kappa, L234A L235A, N297A, name in Kabat numbering)
heavy: QVQLVESGGGVVQPGRSLRLSCAASGFTFSNAWMHWVRQAPGKGLEWVAQIKAKSNNYATYYAESVKGRFTISRDDSKNSLYLQMNSLKTEDTAVYYCRYVHYGAYYGVDAWGQGTTVTVSSASTKGPSVFPLAPSSKSTSGGTAALGCLVKDYFPEPVTVSWNSGALTSGVHTFPAVLQSSGLYSLSSVVTVPSSSLGTQTYICNVNHKPSNTKVDKKVEPKSCDKTHTCPPCPAPEAAGGPSVFLFPPKPKDTLMISRTPEVTCVVVDVSHEDPEVKFNWYVDGVEVHNAKTKPREEQYASTYRVVSVLTVLHQDWLNGKEYKCKVSNKALPAPIEKTISKAKGQPREPQVYTLPPSRCELTKNQVSLSCAVKGFYPSDIAVEWESNGQPENNYKTTPPVLDSDGSFFLVSKLTVDKSRWQQGNVFSCSVMHEALHNHYTQKSLSLSPDYKDDDDK
chain: EPKSSDKTHTCPPCPAPELLGGPSVFLFPPKPKDTLMISRTPEVTCVVVDVSHEDPEVKFNWYVDGVEVHNAKTKPREEQYNSTYRVVSVLTVLHQDWLNGKEYKCKVSNKALPAPIEKTISKAKGQPREPQVCTLPPSRDELTKNQVSLWCLVKGFYPSDIAVEWESNGQPENNYKTTPPVLDSDGSFFLYSKLTVDKSRWQQGNVFSCSVMHEALHNRYTQKSLSLSP
light: DIVMTQSPLSLPVTPGEPASISCRSSQSLIHSNRNTYLHWYQQKPGQAPRLLIYKVSNRFSGVPDRFSGSGSGTDFTLKISRVEAEDVGVYYCGQGTQVPYTFGQGTKLEIKRTVAAPSVFIFPPSDEQLKSGTASVVCLLNNFYPREAKVQWKVDNALQSGNSQESVTEQDSKDSTYSLSSTLTLSKADYEKHKVYACEVTHQGLSSPVTKSFNRGEC
notes: one-arm antibody
B2: GLS3000 V27cS one-arm antibody (H chain CE115HA000) (antibody, human IgG1, kappa, L234A L235A, N297A, name in Kabat numbering)
heavy: QVQLVESGGGVVQPGRSLRLSCAASGFTFSNAWMHWVRQAPGKGLEWVAQIKAKSNNYATYYAESVKGRFTISRDDSKNSLYLQMNSLKTEDTAVYYCRYVHYGAYYGVDAWGQGTTVTVSSASTKGPSVFPLAPSSKSTSGGTAALGCLVKDYFPEPVTVSWNSGALTSGVHTFPAVLQSSGLYSLSSVVTVPSSSLGTQTYICNVNHKPSNTKVDKKVEPKSCDKTHTCPPCPAPEAAGGPSVFLFPPKPKDTLMISRTPEVTCVVVDVSHEDPEVKFNWYVDGVEVHNAKTKPREEQYASTYRVVSVLTVLHQDWLNGKEYKCKVSNKALPAPIEKTISKAKGQPREPQVYTLPPSRCELTKNQVSLSCAVKGFYPSDIAVEWESNGQPENNYKTTPPVLDSDGSFFLVSKLTVDKSRWQQGNVFSCSVMHEALHNHYTQKSLSLSPDYKDDDDK
chain: EPKSSDKTHTCPPCPAPELLGGPSVFLFPPKPKDTLMISRTPEVTCVVVDVSHEDPEVKFNWYVDGVEVHNAKTKPREEQYNSTYRVVSVLTVLHQDWLNGKEYKCKVSNKALPAPIEKTISKAKGQPREPQVCTLPPSRDELTKNQVSLWCLVKGFYPSDIAVEWESNGQPENNYKTTPPVLDSDGSFFLYSKLTVDKSRWQQGNVFSCSVMHEALHNRYTQKSLSLSP
light: DIVMTQSPLSLPVTPGEPASISCRSSQSLSHSNRNTYLHWYQQKPGQAPRLLIYKVSNRFSGVPDRFSGSGSGTDFTLKISRVEAEDVGVYYCGQGTQVPYTFGQGTKLEIKRTVAAPSVFIFPPSDEQLKSGTASVVCLLNNFYPREAKVQWKVDNALQSGNSQESVTEQDSKDSTYSLSSTLTLSKADYEKHKVYACEVTHQGLSSPVTKSFNRGEC
notes: one-arm antibody
B3: GLS3000 V27cP one-arm antibody (H chain CE115HA000) (antibody, human IgG1, kappa, L234A L235A, N297A, name in Kabat numbering)
heavy: QVQLVESGGGVVQPGRSLRLSCAASGFTFSNAWMHWVRQAPGKGLEWVAQIKAKSNNYATYYAESVKGRFTISRDDSKNSLYLQMNSLKTEDTAVYYCRYVHYGAYYGVDAWGQGTTVTVSSASTKGPSVFPLAPSSKSTSGGTAALGCLVKDYFPEPVTVSWNSGALTSGVHTFPAVLQSSGLYSLSSVVTVPSSSLGTQTYICNVNHKPSNTKVDKKVEPKSCDKTHTCPPCPAPEAAGGPSVFLFPPKPKDTLMISRTPEVTCVVVDVSHEDPEVKFNWYVDGVEVHNAKTKPREEQYASTYRVVSVLTVLHQDWLNGKEYKCKVSNKALPAPIEKTISKAKGQPREPQVYTLPPSRCELTKNQVSLSCAVKGFYPSDIAVEWESNGQPENNYKTTPPVLDSDGSFFLVSKLTVDKSRWQQGNVFSCSVMHEALHNHYTQKSLSLSPDYKDDDDK
chain: EPKSSDKTHTCPPCPAPELLGGPSVFLFPPKPKDTLMISRTPEVTCVVVDVSHEDPEVKFNWYVDGVEVHNAKTKPREEQYNSTYRVVSVLTVLHQDWLNGKEYKCKVSNKALPAPIEKTISKAKGQPREPQVCTLPPSRDELTKNQVSLWCLVKGFYPSDIAVEWESNGQPENNYKTTPPVLDSDGSFFLYSKLTVDKSRWQQGNVFSCSVMHEALHNRYTQKSLSLSP
light: DIVMTQSPLSLPVTPGEPASISCRSSQSLPHSNRNTYLHWYQQKPGQAPRLLIYKVSNRFSGVPDRFSGSGSGTDFTLKISRVEAEDVGVYYCGQGTQVPYTFGQGTKLEIKRTVAAPSVFIFPPSDEQLKSGTASVVCLLNNFYPREAKVQWKVDNALQSGNSQESVTEQDSKDSTYSLSSTLTLSKADYEKHKVYACEVTHQGLSSPVTKSFNRGEC
notes: one-arm antibody
B4: GLS3000 V27cL one-arm antibody (H chain CE115HA000) (antibody, human IgG1, kappa, L234A L235A, N297A, name in Kabat numbering)
heavy: QVQLVESGGGVVQPGRSLRLSCAASGFTFSNAWMHWVRQAPGKGLEWVAQIKAKSNNYATYYAESVKGRFTISRDDSKNSLYLQMNSLKTEDTAVYYCRYVHYGAYYGVDAWGQGTTVTVSSASTKGPSVFPLAPSSKSTSGGTAALGCLVKDYFPEPVTVSWNSGALTSGVHTFPAVLQSSGLYSLSSVVTVPSSSLGTQTYICNVNHKPSNTKVDKKVEPKSCDKTHTCPPCPAPEAAGGPSVFLFPPKPKDTLMISRTPEVTCVVVDVSHEDPEVKFNWYVDGVEVHNAKTKPREEQYASTYRVVSVLTVLHQDWLNGKEYKCKVSNKALPAPIEKTISKAKGQPREPQVYTLPPSRCELTKNQVSLSCAVKGFYPSDIAVEWESNGQPENNYKTTPPVLDSDGSFFLVSKLTVDKSRWQQGNVFSCSVMHEALHNHYTQKSLSLSPDYKDDDDK
chain: EPKSSDKTHTCPPCPAPELLGGPSVFLFPPKPKDTLMISRTPEVTCVVVDVSHEDPEVKFNWYVDGVEVHNAKTKPREEQYNSTYRVVSVLTVLHQDWLNGKEYKCKVSNKALPAPIEKTISKAKGQPREPQVCTLPPSRDELTKNQVSLWCLVKGFYPSDIAVEWESNGQPENNYKTTPPVLDSDGSFFLYSKLTVDKSRWQQGNVFSCSVMHEALHNRYTQKSLSLSP
light: DIVMTQSPLSLPVTPGEPASISCRSSQSLLHSNRNTYLHWYQQKPGQAPRLLIYKVSNRFSGVPDRFSGSGSGTDFTLKISRVEAEDVGVYYCGQGTQVPYTFGQGTKLEIKRTVAAPSVFIFPPSDEQLKSGTASVVCLLNNFYPREAKVQWKVDNALQSGNSQESVTEQDSKDSTYSLSSTLTLSKADYEKHKVYACEVTHQGLSSPVTKSFNRGEC
notes: one-arm antibody

The binders below were run against T1, CD3 epsilon homodimer protein (UniProt P07766 23-126) (assay: SPR, CD3e homodimer on chip;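 also: surface plasmon resonance at 25 degrees C, antibodies flowed as analyte over CD3 epsilon homodimer amine-coupled to a CM4 chip, running buffer HBS-EP+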).
T1 construct: also called CD3 (CD3 epsilon)
T1 sequence (P07766 23-126): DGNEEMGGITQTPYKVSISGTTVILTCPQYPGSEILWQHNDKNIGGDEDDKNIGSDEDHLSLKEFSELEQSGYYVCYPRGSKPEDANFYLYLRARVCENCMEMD
Protocol: An appropriate amount of CD3 epsilon homodimer protein was immobilized onto Sensor chip CM4 (GE Healthcare Japan Corp.) by the amine coupling method. Then, the antibody having an appropriate concentration was injected thereto as an analyte and allowed to interact with the CD3 epsilon homodimer protein on the sensor chip. Then, the sensor chip was regenerated by the injection of 10 mmol/L glycine-HCl (pH 1.5). The assay was conducted at 25 degrees C., and HBS-EP+(GE Healthcare Japan Corp.) was used as a running buffer. […] Each parameter was calculated using Biacore T200 Evaluation Software (GE Healthcare Japan Corp.).
Specifically, when the amount of the GLS3000-containing antibody bound was defined as X and the amount of the L chain one-amino acid altered form bound was defined as Y, a value of Z (ratio of amounts bound)=Y/X was used.
B1 was tested, and the “ratio of amounts bound (altered form / unaltered GLS3000 antibody)” value was 0.96. In the case of B2, the “ratio of amounts bound (altered form / unaltered GLS3000 antibody)” value is reported as 0.51. With B3 the “ratio of amounts bound (altered form / unaltered GLS3000 antibody)” value was 0.3. With B4 the “ratio of amounts bound (altered form / unaltered GLS3000 antibody)” value was 0.84.

From patent US20240270846A1 (published 2024)
